Measurements taken from PMC11362306.

Biological target: BLIP2 with azF at residue 41 (BLIP2^41azF)
Test: CNT-FET conductance (I-V); BLIP2 azF variant photochemically attached to p-type SWCNTs of a CNT-FET; BL (or BSA) added in DPBS, to 1.4 μM or stepwise; I-V curves, room temperature; also with 0.5% (w/v) BSA for TEM-1 on BLIP2^213azF

Question: With “TEM-1 β-lactamase (from UniProt P62593 24-286) (enzyme)” as the substance, how does the conductance increase, fold lower than on BLIP2^213azF devices read?
Answer: Its conductance increase, fold lower than on BLIP2^213azF devices is 4 fold.
